Reference: the supplement of paper PMC9170038

Test system: MS2 coat protein
Test: apparent KD of MS2 coat protein; higher = weaker reporter binding
Conditions: Eterna round: R107
Outline: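 Apparent KD stands for the median, per design, of fits to normalised cluster binding curves. The curves came from titrating on-chip-transcribed RNA switches on Illumina sequencing clusters with SNAP-549-labelled MS2 coat protein, twofold from 0.7 or 1.5 nM to 3 µM. Buffer was 100 mM Tris-HCl pH 7.5, 80 mM KCl, 4 mM MgCl2, without or with constant ligand.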

[1] = input ligand: theophylline 20 uM
[2] = input ligand: theophylline 2 mM
[3] = input ligand: tryptophan 2.4 mM

Sequence | apparent KD of MS2 coat protein (input ligand: arginine 13.2 mM) | apparent KD of MS2 coat protein [1] | apparent KD of MS2 coat protein [2] | apparent KD of MS2 coat protein [3] | apparent KD of MS2 coat protein (input ligand: none)
GAUAUUUGAAAACAAAUAUCAGUGGGUGAACGAGGACCGGUACGGCCGCCACUCGGACAUGAGGAUCACCCAUGUCCAUGUGAAA [AstrosExyTryA#7] | 0.0139 µM | 0.0182 µM | 0.0176 µM | – | –
GAUCCUCGUACGGAUACCAGCGACUAACAUGAGGAUCACCCAUGUGAUAAAGAAAAUAUUUGCCCUUGGCAGCCGAAUAGAUAGU [#21 Same State - Theophylline B] | 0.0365 µM | 0.0915 µM | – | 0.0742 µM | –
GAUGAUAUUGCAGAUACCAGACACAUGAGGAUCACCCAUGUCGCUGGGUUACUGGAUCGUGUCCCUUGGCAGCUGCGAUAUCAUC [Austria] | 0.0697 µM | 0.379 µM | – | 0.294 µM | –
GAUUAAACAUGAGGAUCACCCAUGUAUAUACGAGGACCGGUACGGCCGCCACUCGAAAACGAGUAUCCUCGAAUAAACAUGAUAA [AK 2 SS Trypt (A)] | 0.0277 µM | 0.0483 µM | 0.0528 µM | – | –
GCACCAGGUACGGAUACCAGAGCAAGCCAAAUGAGUGAACAUGAGGAUCACCCAUGUUUGCUCCCUUGGCAGCCGUACCUGGUGC [ETB NP+V+V2 #11 +-Same Structure] | 0.00791 µM | 0.0122 µM | – | 0.00935 µM | –
GCACCAGGUACGGAUACCAGCUGCCCGAGAUACAUGAGGAUCACCCAUGUGACCUGGUUUAGCCCUUGGCAGCUGUACCUGGUGC [#14 Same State - Theophylline B] | 0.013 µM | 0.0138 µM | – | 0.0143 µM | –
GCACGAGUAAGACCUGACUUCAACAAUGAUACCAGACUAGUAAACGUCCCUUGGCAGCAUCAGACAUGAGGAUCACCCAUGUGGC [theeternabot_exclusion_MS2_Theo_A_44] | 0.0264 µM | 0.0391 µM | – | 0.0343 µM | –
GCACUACAUGAGGAUCACCCAUGUGCAGAUACCAGAGGUGUAUGCCUCCCUUGGCAGCUGCGUCGCUCUGGAAACUUAUUGGUUU [Same State Theophylline A GF17] | 0.0183 µM | 0.0266 µM | – | 0.0186 µM | –
GCAUGCGAUACCGAUACCAGCUACUCCAUGGCGCUCCACAUGAGGAUCACCCAUGUAAAUAGCCCUUGGCAGCGGUAUUGAGAUG [Anrabegema] | 0.0164 µM | 0.0539 µM | – | 0.021 µM | –
GCCAUCGGCGGAAGCCGAUGGGAUACAGAAGGAGCGUGGAUUAACACAGGUAGGUCGCUGGACAUGAGGAUCACCCAUGUAAUAG [SSAA #8] | 0.0174 µM | 0.0272 µM | 0.0324 µM | 0.0217 µM | 0.0262 µM
GCCCUGCGCCCGGGACCGGCAAGAUCCAUGCGAGGACCGGUACGGCCGCCACUCGCAGACGUACAUGAGGAUCACCCAUGUCCUC [theeternabot_exclusion_MS2_Trp_A_24] | 0.14 µM | 0.838 µM | 0.867 µM | – | –
GCCGCUGCCGCGAUAUGUAUGGGUGUGUAACGAGGACCGGUACGGCCGCCACUCGCGAUCGCACAUGAGGAUCACCCAUGUGUCC [Exclusion Tryp A GF18] | 0.0265 µM | 0.0724 µM | 0.068 µM | – | –
GCCGGACUUUCGGCCGCCACUGAGAGAGUCGUGUGAACAUGAGGAUCACCCAUGUAAUAUAUAUACAGGACCGGGAGGGUUGGGC [4.R] | 0.0105 µM | 0.0151 µM | 0.0144 µM | 0.0124 µM | 0.0137 µM
GCGAACGGACCGUUGCCUUCCUGUGUGCGGCGAGGACCGGUACGGCCGCCACUCGACUGCGUACAUGAGGAUCACCCAUGUUAGA [theeternabot_exclusion_MS2_Trp_A_16] | 0.0412 µM | 0.0402 µM | 0.0318 µM | – | –
GCGAUGGAGCGAAGGAGCGGCUGUGACUACAUGAGGAUCACCCAUGUACGAUUGUAAGGUAGCCAGGUAGGUCGCGCUCCAUCGC [SSAB NP+V+V2 #18] | 0.014 µM | 0.0225 µM | 0.0246 µM | 0.0158 µM | 0.0163 µM
GCUAGGUCAUCGGCCGCCACUAACGACGGCUCCAACAUGAGGAUCACCCAUGUGCCACAUGCGCAUAGGACCGGGAUGACCUAGC [SSTB NP+V+V2 #4] | 0.0256 µM | 0.055 µM | 0.045 µM | 0.0146 µM | 0.0369 µM
GCUAGUGGCAGAAGGAGCGGCAUACUUGCAAGUGACAUGAGGAUCACCCAUGUAAGGGAAUGCCAGGUAGGUCGCUGCCACUAGC [EAB NP+V+V2 #1 +-Same Structure] | 0.0349 µM | 0.0545 µM | 0.0387 µM | 0.0285 µM | 0.0317 µM
GCUGCCAUACGAAGGAGCGCUGUUGUAGUGAGGCGAACAUGAGGAUCACCCAUGUGGCAGCAGCAGGUAGGUCGCGUAUGGCAGC [EAB #13] | 0.0137 µM | 0.035 µM | 0.0339 µM | 0.026 µM | 0.0186 µM
GGAAAAUAUAGGGAUACCAGAUAUGGCGUUGACAUGAGGAUCACCCAUGUCUUAGCAGUGAUCCCUUGGCAGCCCACACCAUCCG [theeternabot_sameState_MS2_Theo_B_13] | 0.0409 µM | 0.0613 µM | – | 0.0645 µM | –
GGAAACCCGACGGCCGCCACUAACGGUCUCAAAAGAGGUUGAACACAUGAGGAUCACCCAUGUAAUAGGACCGGGUCGUGUGAAA [Design 1] | 0.0179 µM | 0.0249 µM | 0.0194 µM | – | –

Sequence | apparent KD of MS2 coat protein (input ligand: arginine 13.2 mM) | apparent KD of MS2 coat protein [1] | apparent KD of MS2 coat protein [2] | apparent KD of MS2 coat protein [3] | apparent KD of MS2 coat protein (input ligand: none)
GGAAGCAGGACUGAUACCAGUCCAGCGAAUCAUACGACGCAACAUGAGGAUCACCCAUGUGACCCUUGGCAGCAGACUGCUACCG [Same State Theophylline B GF 27] | 0.0331 µM | 0.0372 µM | – | 0.0322 µM | –
GGACUAACCAGAAGGAGCGACACGCAGAAACUGCAAUUUCCUCCGCACGAGGAUCACCCGUGUCAGGUAGGUCGCUGGUUAGUCG | 0.0206 µM | 0.0351 µM | 0.0258 µM | 0.0211 µM | 0.0221 µM
GGACUAACCAGAAGGAGCGACACGCAGAAACUGCUAAUUCCUCCGCACGAGGAUCACCCGUGUCAGGUAGGUCGCUGGUUAGUCG [ArgBX 28] | 0.0203 µM | 0.0285 µM | 0.0243 µM | 0.0233 µM | 0.0205 µM
GGACUAACCAGAAGGAGCGACGCGCAGAAACUGCAAAAUCCUCCACACGAGGAUCACCCGUGUCAGGUAGGUCGCUGGUUAGUCG [ArgXB 16 #CuTurnoff #MS2Left #StaticStem #Blueprint] | 0.0302 µM | 0.0361 µM | 0.0272 µM | 0.0313 µM | 0.0266 µM
GGACUAACCAGAAGGAGCGGCACGCAGAAACUGCAAUUUCCUCCACACGAGGAUCACCCGUGUCAGGUAGGUCGCUGGUUAGUCG [ArgBX 29] | 0.0264 µM | 0.0218 µM | 0.0238 µM | 0.0226 µM | 0.0227 µM
GGACUAACCUGAAGGAGCGACGCGCAGAAACUGCAAAUUCCUCCACACGAGGAUCACCCGUGUCAGGUAGGUCGCAGGUUAGUCG [ArgBX 28] | 0.0136 µM | 0.0189 µM | 0.0182 µM | 0.0169 µM | 0.0146 µM
GGAUAGGACACGGCCGCCACUAGCUAGGAUACUAGCAACAUUUCCUCACUUGAGGAACACCCAAGUAGGACCGGGUGUCCUAUCG | 0.122 µM | 0.724 µM | 1.36 µM | 0.74 µM | 0.517 µM
GGAUAGGACACGGCCGCCACUAGCUAGGAUACUAGCAACAUUUCCUCAUCUGAGGAUCACCCAGGUAGGACCGGGUGUCCUAUCG | 0.172 µM | 0.683 µM | 1.07 µM | 0.565 µM | –
GGAUAGGACACGGCCGCCACUUGCUAGGAUACUAGCAACAUUUCCUCUCAUGAGGAUCACCCAUGAAGGACCGGGUGUCCUAUCG | 0.0213 µM | 0.0306 µM | 0.0233 µM | 0.0273 µM | –
GGAUUCAACUCGGCCGCCACUGGUGAUCCUAAUGUACAUGAGGAUCACCCAUGUACAUGAGAAUAUAGGACCGGGAGAUAAGUUA [Tryptophan B V3 (+3U)] | 0.0232 µM | 0.0335 µM | 0.0322 µM | – | –
GGCACGUACGGAAGGAGCGACUGUUCGACGUGGGUACAUGAGGAUCACCCAUGUCUCCGCAGUCAGGUAGGUCGCCGUACGUGCC [EAB NP+V+V2 #21 +-Same Structure] | 0.0343 µM | 0.0636 µM | 0.0498 µM | 0.0386 µM | 0.0427 µM
GGCCAGGCAGCGGCCGCCACUUAGUGGGCCGAAUGUCCUUUGCUGAACAUGAGGAUCACCCAUGUAAGGACCGGGCUGUUCCGCA [theeternabot_exclusion_MS2_Trp_B_30] | 0.0274 µM | 0.0423 µM | 0.0415 µM | – | –
GGCGCGGUGAUGGUAGCCGGACGCUAGGUACGAGGACCGGUACGGCCGCCACUCGGAGUCCUGGGACAUGAGGAUCACCCAUGUA [Same State Trp A GF18] | 0.0789 µM | 0.118 µM | 0.209 µM | 0.0634 µM | 0.161 µM
GGCUGACAUGAGGAUCACCCAUGUAGUGAUACCAGUAAGAGAAUAUACCCUUGGCAGCACAGGUAACAACUCGUCUCCAAAGUAA [theeternabot_sameState_MS2_Theo_A_49] | 0.0537 µM | 0.0556 µM | – | 0.0382 µM | –
GGGAAAUGAAUAGAAUGAGAUGACACAGAAGGAGCGCGGAUUAACGCAGGUAGGUCGCUGACAACAUGAGGAUCACCCAUGUUUC [#10 Same State - Arginine A] | 0.0137 µM | 0.0176 µM | 0.018 µM | 0.0141 µM | 0.0142 µM
GGGCCCGGGCGCGAGCCCGGGCCCAUUGAUACCAGUGAUAUAUAACGCCCUUGGCAGCGAAUCCUAACAUGAGGAUCACCCAUGU [5.G] | 0.0352 µM | 0.0615 µM | 0.0718 µM | 0.037 µM | 0.0463 µM
GGGCGCUAUCCCGCGAGGGAUAGCGUUCAACGAGGACCGGUACGGCCGCCACUCGAACGAGUGGUGACAUGAGGAUCACCCAUGU [Iaa] | 0.0399 µM | 0.0664 µM | 0.0533 µM | 0.0564 µM | 0.0425 µM
GGGCGUGUGGUGCGGCGUGCUCCGCUCCGUCGAGGACCGGUACGGCCGCCACUCGACAUGAGGAUCACCCAUGUGCGAGCGCGCG [#1 Exclusion - Tryptophan A Attempt #9 (HarryS)] | 0.0163 µM | 0.0105 µM | 0.0144 µM | 0.0244 µM | 0.00981 µM
GGGUACAUCGCGGCCGCCACUCAUGUAAAUGCGUGAGGAUCACCCAUGCCGAUGGAGACAUCGGAGAGGACCGGGUGAUGUACCG | 0.0279 µM | 0.04 µM | 0.0527 µM | 0.0467 µM | 0.0385 µM
